Test results: paper PMC11157265

Experiments:
PduA* A63R (C. freundii) = assay: native gel or EMSA; PduA, A63R and A^GGSST alone on native gel run at pH 9.5; mobility tells tessellated from not tessellated; step: hexamer with hexamer (tessellation)
[1] = molecular target: PduA* (Citrobacter freundii PduA with a C-terminal 23 residue extension) (C. freundii); assay: native gel or EMSA; PduA and variants alone on native PAGE run at pH 8.5, 4 °C; low mobility = tessellated, high mobility = not tessellated; step: hexamer with hexamer (tessellation)
[2] = molecular target: PduA* (Citrobacter freundii PduA with a C-terminal 23 residue extension) (C. freundii); assay: native gel or EMSA; titration of tagless PduL into His-tagged PduA on a 6% acrylamide native gel, with anti-His Western blot to locate PduA
[3] = molecular target: PduA* (Citrobacter freundii PduA with a C-terminal 23 residue extension) (C. freundii); assay: native gel or EMSA; titration of PduL into PduA trimer of hexamers on a native gradient gel (higher resolution)

Question: How did the stoichiometry N (PduA* A63R (C. freundii)) turn out when PduA* A63R (natural protein) was run?
Answer: The stoichiometry N was 3 hexamers.

Question: With “PduA* (Citrobacter freundii PduA with a C-terminal 23 residue extension) (natural protein)” as the molecule, how does the stoichiometry N [1] read?
Answer: Its stoichiometry N is 3 hexamers.

B1: PduL (Citrobacter freundii), His-tag cleaved (enzyme)
chain: MDKQQLETTVTKVLDEMRERPIPLGISNRHIHLCAEDYDRLFPNHPISEKKELLQPGQYAADQTVTLVGPKGQLKNVRLLGPLRSTSQVEISRTDARTLGIAAPLRMSGSIEGTPGVRLISPFAELDLASGVIVAQRHIHMSPLDALILRVSHGDKVSVAINGDERRLIFDNVAVRVSPDMRLEMHIDTDEANAAGADNPQAFATLVSPR
Question: What does the source list for B1?
Answer: stoichiometry N (PduL dimer per PduA hexamer) [2]: 1; stoichiometry N (PduL dimers per PduA trimer of hexamers) [3]: 3
